The record followed here is patent WO2008140316A1.

This assay addresses human CD40 receptor on monocytes (human) (UniProt P25942). The assay is described as follows: cell-based or functional assay.
UniProt P25942, sequence (P25942 21-277): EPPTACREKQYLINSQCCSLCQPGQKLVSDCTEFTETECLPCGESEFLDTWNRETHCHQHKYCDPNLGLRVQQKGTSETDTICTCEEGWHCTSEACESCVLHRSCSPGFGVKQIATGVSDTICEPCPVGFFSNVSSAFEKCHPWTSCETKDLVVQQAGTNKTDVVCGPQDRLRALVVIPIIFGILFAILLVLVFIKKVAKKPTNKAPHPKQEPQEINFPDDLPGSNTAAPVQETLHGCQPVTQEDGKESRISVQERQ

For “clone 64 (agonist anti-human CD40 monoclonal antibody, PanGenetics, The Netherlands)”, the IL-1β (pg/mL), Clone 64+IFN-γ, MDS CD14+ cells (Table 3) is 18 pg/mL; the IL-1β (pg/mL), Clone 64+IFN-γ, donor CD14+ cells (Table 3) was found to be 13 pg/mL; the IL-6 (pg/mL), Clone 64+IFN-γ, MDS CD14+ cells (Table 3) was 1210 pg/mL; the IL-6 (pg/mL), Clone 64+IFN-γ, donor CD14+ cells (Table 3) is 1490 pg/mL. For the same substance, the IL-10 (pg/mL), Clone 64+IFN-γ, MDS CD14+ cells (Table 3) is 1650 pg/mL; the IL-10 (pg/mL), Clone 64+IFN-γ, donor CD14+ cells (Table 3) came to 1170 pg/mL; the TNF-α (pg/mL), Clone 64+IFN-γ, MDS CD14+ cells (Table 3) stood at 293 pg/mL; the TNF-α (pg/mL), Clone 64+IFN-γ, donor CD14+ cells (Table 3) came to 52 pg/mL. For the same substance, the TNF-α production by CD14+ monocytes from MDS patients, clone 64 + IFN-γ, 24 h, ELISA amounted to 449 pg/mL and the TNF-α production by CD14+ monocytes from normal controls, clone 64 + IFN-γ, 24 h, ELISA amounted to 67 pg/mL.
